± gives the standard error. For some assays here: This sample holds only a part of the variants without activity.
B1: glmS ribozyme (parent)
chain: AUAAAAGCGCCAGAACUACAGAAAUGUAGUUGACGAGGAGGAGGUUUAUCGAAUUUUCGGCGGAUGCCUCCAAA

Legend:
Conditions in all cases: with glucosamine-6-phosphate
glucosamine-6-phosphate [1] = variants of: B1; assay: kcat; higher = faster cleavage; RNA array
Summary of the method: (§1)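 Glucosamine-6-phosphate in HEPES/KCl/Mg(OAc)2 buffer, at 40 μM to 10 mM, was flowed over barcoded ribozyme variants transcribed in situ by E. coli RNA polymerase on sequenced MiSeq chips. Tracking was through a hybridised Cy3 probe at 37 °C. kobs, kcat and KM came from exponential decay fits and weighted Michaelis–Menten fits of normalised per-tile medians.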

glucosamine-6-phosphate [2] = variants of: B1; assay: KM; higher = weaker cofactor use; RNA array
Summary of the method: as §1

glucosamine-6-phosphate [3] = variants of: B1; assay: self-cleavage kobs at 40 uM GlcN6P; higher = faster cleavage; RNA array
Summary of the method: as §1

glucosamine-6-phosphate [4] = variants of: B1; assay: self-cleavage kobs at 160 uM GlcN6P; higher = faster cleavage; RNA array
Summary of the method: as §1

glucosamine-6-phosphate [5] = variants of: B1; assay: self-cleavage kobs at 640 uM GlcN6P; higher = faster cleavage; RNA array
Summary of the method: as §1

glucosamine-6-phosphate [6] = variants of: B1; assay: self-cleavage kobs at 2500 uM GlcN6P; higher = faster cleavage; RNA array
Summary of the method: as §1

glucosamine-6-phosphate [7] = variants of: B1; assay: self-cleavage kobs at 10000 uM GlcN6P; higher = faster cleavage; RNA array
Summary of the method: as §1

Variant | kcat (glucosamine-6-phosphate [1]) | KM (glucosamine-6-phosphate [2]) | self-cleavage kobs at 40 uM GlcN6P (glucosamine-6-phosphate [3]) | self-cleavage kobs at 160 uM GlcN6P (glucosamine-6-phosphate [4]) | self-cleavage kobs at 640 uM GlcN6P (glucosamine-6-phosphate [5]) | self-cleavage kobs at 2500 uM GlcN6P (glucosamine-6-phosphate [6]) | self-cleavage kobs at 10000 uM GlcN6P (glucosamine-6-phosphate [7])
G32A U54G | 0.00257 ± 0.00027 s⁻¹ | 2600 ± 410 µM | 3.07e-05 ± 7.9e-06 s⁻¹ | 0.000162 ± 2.6e-05 s⁻¹ | 0.000536 ± 5.3e-05 s⁻¹ | 0.00121 ± 0.00012 s⁻¹ | 0.00207 ± 0.00024 s⁻¹
G38U A39U G60C C68A |  |  | < 1e-05 s⁻¹ |  |  | < 1e-05 s⁻¹ | 
G7A U57G C61A |  |  | < 1e-05 s⁻¹ |  |  |  | 
A6U U55G G62C C70A |  |  | < 1e-05 s⁻¹ |  |  |  | 
A12C G38C U56C |  |  | < 1e-05 s⁻¹ |  |  |  | < 1e-05 s⁻¹
U69G C71U | 4.96e-05 ± 1.4e-05 s⁻¹ |  |  | 7.88e-05 ± 2.1e-05 s⁻¹ | 9.65e-05 ± 2.5e-05 s⁻¹ | 6.25e-05 ± 1.2e-05 s⁻¹ | 3.11e-05 ± 9.4e-06 s⁻¹
A14G G62A |  |  | < 1e-05 s⁻¹ |  |  |  | 
G40U A48C | 5.25e-05 ± 2.1e-05 s⁻¹ |  |  | < 1e-05 s⁻¹ |  |  | 3.45e-05 ± 9.8e-06 s⁻¹
A6G G13C U31G A39C U45G |  |  | < 1e-05 s⁻¹ |  |  |  | < 1e-05 s⁻¹
G41C C70A | 0.000866 ± 0.00015 s⁻¹ | 762 ± 230 µM | 5.77e-05 ± 8.1e-06 s⁻¹ | 0.000116 ± 2.1e-05 s⁻¹ | 0.000392 ± 6.6e-05 s⁻¹ | 0.00078 ± 0.00012 s⁻¹ | 0.000775 ± 9.6e-05 s⁻¹
U31G U46C | 0.000896 ± 0.00013 s⁻¹ | 1720 ± 420 µM | 3.68e-05 ± 1.6e-05 s⁻¹ | 7.33e-05 ± 1.5e-05 s⁻¹ | 0.00021 ± 6.8e-05 s⁻¹ | 0.000592 ± 0.00011 s⁻¹ | 0.000731 ± 0.00014 s⁻¹
G37C G40U |  | 5820 ± 2300 µM |  |  |  |  | 
C10A G62C |  |  | < 1e-05 s⁻¹ | < 1e-05 s⁻¹ | < 1e-05 s⁻¹ |  | 
G32U A48U C58U C68U |  |  | < 1e-05 s⁻¹ |  |  |  | 
A6G U49C |  |  | < 1e-05 s⁻¹ | < 1e-05 s⁻¹ | < 1e-05 s⁻¹ | < 1e-05 s⁻¹ | 
G7C G60U |  |  | < 1e-05 s⁻¹ | < 1e-05 s⁻¹ |  | < 1e-05 s⁻¹ | < 1e-05 s⁻¹
G38U G41C C68G |  |  | < 1e-05 s⁻¹ |  |  |  | < 1e-05 s⁻¹
U54A U55C |  |  | 0.00104 ± 0.00016 s⁻¹ | 0.00215 ± 0.00046 s⁻¹ | 0.00479 ± 0.001 s⁻¹ | 0.0235 ± 0.0076 s⁻¹ | 0.0628 ± 0.022 s⁻¹
U31A G63U |  |  | < 1e-05 s⁻¹ | < 1e-05 s⁻¹ | < 1e-05 s⁻¹ | < 1e-05 s⁻¹ | < 1e-05 s⁻¹
A39U A52C |  | 2300 ± 420 µM |  |  |  |  | 

Variant | kcat (glucosamine-6-phosphate [1]) | KM (glucosamine-6-phosphate [2]) | self-cleavage kobs at 40 uM GlcN6P (glucosamine-6-phosphate [3]) | self-cleavage kobs at 160 uM GlcN6P (glucosamine-6-phosphate [4]) | self-cleavage kobs at 640 uM GlcN6P (glucosamine-6-phosphate [5]) | self-cleavage kobs at 2500 uM GlcN6P (glucosamine-6-phosphate [6]) | self-cleavage kobs at 10000 uM GlcN6P (glucosamine-6-phosphate [7])
A14G C19A A20G G21A G60A |  |  | < 1e-05 s⁻¹ |  |  |  | 
A33G C50U |  |  | < 1e-05 s⁻¹ |  | < 1e-05 s⁻¹ |  | < 1e-05 s⁻¹
A12G A64U C71U |  |  | < 1e-05 s⁻¹ |  |  |  | 
C8G U31A U57A |  |  | < 1e-05 s⁻¹ |  |  | < 1e-05 s⁻¹ | < 1e-05 s⁻¹
G40A U55C | 0.0017 ± 0.00029 s⁻¹ | 1980 ± 650 µM | 4.24e-05 ± 1.5e-05 s⁻¹ |  | 0.00035 ± 0.0001 s⁻¹ | 0.00119 ± 0.00036 s⁻¹ | 0.0014 ± 0.00025 s⁻¹
G32U U47G | 0.000502 ± 8.1e-05 s⁻¹ | 4700 ± 1400 µM |  |  | 5.12e-05 ± 1.7e-05 s⁻¹ | 0.000189 ± 3.3e-05 s⁻¹ | 0.000336 ± 4.6e-05 s⁻¹
U47A A64G |  | 787 ± 380 µM | 0.000468 ± 8.5e-05 s⁻¹ | 0.00141 ± 0.00037 s⁻¹ | 0.00552 ± 0.0012 s⁻¹ | 0.00614 ± 0.0013 s⁻¹ | 0.0238 ± 0.0074 s⁻¹
G7A C16A |  | 275 ± 120 µM |  |  |  |  | 
C10U C11G |  |  | < 1e-05 s⁻¹ |  | < 1e-05 s⁻¹ | < 1e-05 s⁻¹ | < 1e-05 s⁻¹
A14C C67G | 0.000353 ± 6.7e-05 s⁻¹ | 2730 ± 860 µM |  | 3.67e-05 ± 7.3e-06 s⁻¹ | 6.56e-05 ± 5.7e-06 s⁻¹ | 0.000156 ± 1.5e-05 s⁻¹ | 0.000293 ± 2.8e-05 s⁻¹
U31C G35A G37U |  |  | < 1e-05 s⁻¹ |  |  |  | 
G41U G43U U57G G62A C68A |  |  | < 1e-05 s⁻¹ | < 1e-05 s⁻¹ | < 1e-05 s⁻¹ | < 1e-05 s⁻¹ | < 1e-05 s⁻¹
U56C G63U |  |  | < 1e-05 s⁻¹ | < 1e-05 s⁻¹ |  |  | < 1e-05 s⁻¹
A15U G43U |  |  | < 1e-05 s⁻¹ | < 1e-05 s⁻¹ | < 1e-05 s⁻¹ |  | < 1e-05 s⁻¹
A33C G51C G63C A64U |  |  | < 1e-05 s⁻¹ | < 1e-05 s⁻¹ | < 1e-05 s⁻¹ |  | < 1e-05 s⁻¹
A15U G29U | 0.00358 ± 0.0016 s⁻¹ |  | 0.000116 ± 1.1e-05 s⁻¹ | 0.000217 ± 7.1e-05 s⁻¹ |  | 0.0014 ± 0.00028 s⁻¹ | 0.00431 ± 0.00044 s⁻¹
A33U U45G G51A |  |  | < 1e-05 s⁻¹ |  |  |  | < 1e-05 s⁻¹
A12G G29U | 0.000345 ± 2.6e-05 s⁻¹ | 3740 ± 440 µM |  |  | 5.19e-05 ± 7.9e-06 s⁻¹ | 0.000134 ± 1.9e-05 s⁻¹ | 0.000255 ± 4.1e-05 s⁻¹
C11U A33G |  |  | < 1e-05 s⁻¹ | < 1e-05 s⁻¹ |  | < 1e-05 s⁻¹ | < 1e-05 s⁻¹
A12U G40A G63C |  |  | < 1e-05 s⁻¹ |  |  |  | 

Reference: the supplement of paper PMC7125110
